The target of experiment [1] is T1, human BAFFR/TNFRSF13C (CD268) Fc tag, from Sino Biological (human, UniProt Q96RJ3 1-71, limits assumed).
T1 construct: Bought protein; not shown: Fc tag
T1 sequence (looked up): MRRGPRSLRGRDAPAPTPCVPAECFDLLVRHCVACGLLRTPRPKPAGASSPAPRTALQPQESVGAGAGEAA
Put plainly: bio-layer interferometry, antibody coupled to AR2G sensor, BAFFR in solution. The method, then:
(§1) Bio-layer interferometry was used to measure cross-binding between (1) two different anti-BCMA antibodies (BCA7-2C5 or BB C11D5) or a control isotype, and (2) various human antigens including TACI and BAFFR.
(§2) Immobilization of antibody was achieved through standard EDC-catalyzed amide bond formation to create a covalent bond between a reactive amine on the protein and the carboxy-terminated biosensor surface. Briefly, AR2G sensors (OctetRED96e from ForteBio) were activated by EDC-NHS for 6 minutes, then 5 ug/ml antibodies were loaded (BCA7-2C5 antibody, Bluebird C11D5 chimeric antibody, or a human IgG isotype antibody) in 10 mM acetate buffer pH 5.0 for 6 minutes, followed by quenching for 6 minutes with 1M ethanolamine pH 8.5. The 3 minutes baseline step removed any unbound antibody from the biosensor, followed by 1.5 minutes each for association of three analyte proteins TACI (human TACI/TNFRSF13B (CD267) His-tag, from Sino Biological, 1 ug/mL in PBS), BAFFR (human BAFFR/TNFRSF13C (CD268) Fc tag) from Sino Biological, 2 ug/mL in PBS), and human BCMA protein (in-house made with mouse Fc, 2 ug/mL in PBS).

Experiment [2] concerns the target T2, his-tagged cynomolgus BCMA protein (ACROBiosystems, catalog # BCA-052H7) (cynomolgus, UniProt A0A2K5UD97 1-53).
T2 construct: Bought protein; also called cyno BCMA; not shown: his tag
Put plainly: SPR (Biacore T200), antibody captured on anti-human Fc chip, his-tagged cynomolgus BCMA as analyte. The protocol:
Binding kinetics of anti-BCMA antibodies with his-tagged human BCMA protein (ACROBiosystems, catalog # BCA-H522y-100 ug, UniProt Q02223-1, SEQ ID NO:92) was measured using surface plasmon resonance (SPR). Kinetic interactions between the antibodies and his-tagged BCMA proteins were measured at 25° C. using Biacore T200 surface plasmon resonance (GE Healthcare). Anti-human fragment crystallizable region (Fc region) antibody was immobilized on a CM5 sensor chip to approximately 8000 resonance units (RU) using standard N-hydroxysuccinimide/N-Ethyl-N′-(3-dimethylaminopropyl) carbodiimide hydrochloride (NHS/EDC) coupling methodology. The anti-BCMA antibody (2 μg/mL) was captured for 60 seconds at a flow rate of 10 μL/minute. The his-tagged BCMA protein was run at […] different dilutions of 3.12, 6.25, 12.5, 25, 50, 100 and 200 nM, in a running buffer of 0.01 M HEPES pH 7.4, 0.15 M NaCl, 3 mM EDTA, 0.05% v/v Surfactant P20 (HBS-EP+). The 25 nM BCMA protein run was measured two times. All measurements were conducted in HBS-EP+ buffer with a flow rate of 30 μL/minute. A 1:1 (Langmuir) binding model was used to fit the data. […]
Cross reactivity of two of the anti-BCMA antibodies, BCA7-2C5 and BCA7-2E1, with his-tagged human, cynomolgus or mouse BCMA protein were analyzed by SPR in the manner as described above. […]

The target of experiment [3] is T3, human TACI/TNFRSF13B (CD267) His-tag, from Sino Biological (human, UniProt O14836 1-166, limits assumed).
T3 construct: Bought protein; not shown: His-tag
T3 sequence (looked up): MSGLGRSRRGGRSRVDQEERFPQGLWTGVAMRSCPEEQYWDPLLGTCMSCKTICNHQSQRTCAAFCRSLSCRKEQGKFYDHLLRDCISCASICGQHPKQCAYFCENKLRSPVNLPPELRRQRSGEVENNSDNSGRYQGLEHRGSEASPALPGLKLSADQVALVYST
Put plainly: bio-layer interferometry, antibody coupled to AR2G sensor, TACI in solution. The method, then: as §1, §2

T2 sequence (A0A2K5UD97 entry or part of it): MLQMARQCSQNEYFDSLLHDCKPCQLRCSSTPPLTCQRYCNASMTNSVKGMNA

B1: BCA7-2C5 antibody (antibody, V domains shown)
VH: EVQLVESGGGLVKPGGSLRLSCAASGFTSSTAWMSWVRQAPGKGLEWVGRIKSKSDGGTTDYAAPVKGRFTISRDDSKNTLFLQMNSLKTEDTAVYYCAKGGGTYGYWGQGTTVTVSS
VL: QSALTQPASVSGSPGQSVTISCTGTSSAHGGHYYVSWYQQHPGKAPKLMIYDVSNRPSGVSNRFSGSKSGNTASLTISGLQAEDEADYYCGSYTSSGSYVFGTGTKLTVL
As to B1, the results for the binding result in experiment [1] and in experiment [3] were “no binding (tested: 2 ug/mL)” and “no binding (tested: 1 ug/mL)”, respectively. The molecule also returned a dissociation constant Kd in experiment [2] of 0.057 µM.

Source of the values: patent publication US20210388097A1 (SORRENTO THERAPEUTICS, published 2021).
